Reference: publication PMC9486129, “An evolutionary divergent thermodynamic brake in ZAP-70 fine-tunes the kinetic proofreading in T cells” (The Journal of Biological Chemistry, 2022)
Where no end group is shown, it is not given here. [ ]: non-standard residue; d: D form. pY = N[C@@H](Cc1ccc(OP(=O)(O)O)cc1)C(=O)O

Biological target: T1, ZAP-70 tandem SH2 domain R192A (1-256)
T1 construct: numbers count on: PDB 2OQ1 (holo-tSH2 structure); also called tSH2 R192A; C-SH2 domain mutant; source: E. coli BL21(DE3), purified (Ni-NTA, Q column, gel filtration)
Assay: ITC; Malvern PEAQ-ITC, 20 °C; C-SH2 mutant tSH2 (R192A, printed R190A in the methods) in 20 mM Hepes pH 8.2, 150 mM NaCl, 5 mM β-mercaptoethanol; titrated with 300 μM peptide; one-site binding model; constant printed under the column Kd2
Conditions: both partners purified

Binder DGL[pY]QGLSTATKDT[pY]DALH [doubly-phosphorylated ITAM-ζ3 peptide] has a Kd of 12 ± 0.9 µM.
